In patent US12534748B2, “Engineered beta-subunit of tryptophan synthase for production of non-canonical amino acids” (California Institute of Technology, priority 2015, dated 2026):
Substitutions are numbered along the chain they refer to. Numbers in names are those of the source.

B1: PfTrpB^0B2: PfTrpB with mutations P12L, E17G, I68V, F274S, T292S, T321A (protein)
chain: MWFGEFGGQYVLETLIGPLKELEKAYKRFKDDEEFNRQLNYYLKTWAGRPTPLYYAKRLTEKIGGAKVYLKREDLVHGGAHKTNNAIGQALLAKFMGKTRLIAETGAGQHGVATAMAGALLGMKVDIYMGAEDVERQKMNVFRMKLLGANVIPVNSGSRTLKDAINEALRDWVATFEYTHYLIGSVVGPHPYPTIVRDFQSVIGREAKAQILEAEGQLPDVIVACVGGGSNAMGIFYPFVNDKKVKLVGVEAGGKGLESGKHSASLNAGQVGVSHGMLSYFLQDEEGQIKPSHSIAPGLDYPGVGPEHAYLKKIQRAEYVAVTDEEALKAFHELSRTEGIIPALESAHAVAYAMKLAKEMSRDEIIIVNLSGRGDKDLDIVLKVSGNVLEHHHHHH
modifications: left off: small tags and cut ends
notes: PfTrpB with mutations P12L, E17G, I68V, F274S, T292S, T321A
B2: PfTrpB^2G9: PfTrpB with mutation T292S (protein)
chain: B1 chain with L12P, G17E, V68I, S274F, A321T
modifications: left off: small tags and cut ends
notes: PfTrpB with mutation T292S
B3: PfTrpB^4D11: PfTrpB with mutations E17G, I68V, F274S, T292S, T321A (protein)
chain: B1 chain with L12P
modifications: left off: small tags and cut ends
notes: PfTrpB with mutations E17G, I68V, F274S, T292S, T321A
B4: PfTrpB: wild-type β-subunit of tryptophan synthase from Pyrococcus furiosus, SEQ ID NO:2 (protein, listed as Pyrococcus furiosus)
chain: B1 chain with L12P, G17E, V68I, S274F, S292T, A321T
B5: TmTrpB^WT: wild-type TrpB from Thermotoga maritima, SEQ ID NO:6 (protein, listed as Thermotoga maritima)
chain: MKGYFGPYGGQYVPEILMPALEELEAAYEEIMKDESFWKEFNDLLRDYAGRPTPLYFARRLSEKYGARIYLKREDLLHTGAHKINNAIGQVLLAKKMGKTRIIAETGAGQHGVATATAAALFGMECVIYMGEEDTIRQKPNVERMKLLGAKVVPVKSGSRTLKDAINEALRDWITNLQTTYYVIGSVVGPHPYPIIVRNFQKVIGEETKKQILEKEGRLPDYIVACVGGGSNAAGIFYPFIDSGVKLIGVEAGGEGLETGKHAASLLKGKIGYLHGSKTFVLQDDWGQVQVTHSVSAGLDYSGVGPEHAYWRETGKVLYDAVTDEEALDAFIELSRLEGIIPALESSHALAYLKKINIKGKVVVVNLSGRGDKDLESVLNHPYVRERIRLEHHHHHH

Assays:
[1] = Thermostability T50 (temperature of half-maximal activity after incubation for 1 h); format: physicochemical; settings: for T50: temperature of half-maximal activity after incubation for 1 h
[2] = Kinetics of tryptophan formation monitored at 290 nm (continuous assay for Trp production); format: biochemical
Protocol: Kinetics and UV-Vis Spectroscopy. Data were collected between 550 and 250 nm on a UV1800 Shimadzu spectrophotometer (Shimadzu) using 0.25-20 μM of enzyme in 200 mM potassium phosphate (pH 8.0) in a quartz cuvette. Samples were incubated at 75° C. for >3 min to ensure a stable temperature was reached. PfTrpB activity (kcat) was measured by monitoring tryptophan formation at 290 nm using Δe290=1.89 mM^−1·cm^−1.
Purified protein concentrations were determined via the Bradford assay (Bio-Rad). The concentration of PfTrpB^2B9 in heat treated lysates was determined by specific activity. Tryptophan formation was monitored at 75° C. over 1 min at 290 nm using Δε290=1.89 mM^−1 cm^−1·^2 The assay buffer contained 200 mM potassium phosphate pH 8, and 5 μM PLP. Using purified PfTrpB^2B9, we recorded an activity of 0.9 s^−1 with 400 μM Ind and 20 mM Ser. Using this parameter, 375 mg L^−1 of PfTrpB^2B9 active catalyst were prepared as a heat-treated lysate.

[3] = Substrate selectivity: relative rate of NCAA production with L-serine and indole analogs (UHPLC-MS); format: biochemical
Protocol: engineered TrpB enzymes. (A) Indole analogs that have been reported to react with StTrpS were tested for reactivity with the PfTrpB, PfTrpS, and PfTrpB^0B2 enzymes. The nucleophilic atom is indicated with a gray circle. (B) Relative activities of enzyme complex PfTrpS (black) and PfTrpB^0B2 (gray) compared with PfTrpB. Reactions performed in duplicate with 20 mM of each substrate and varying enzyme concentrations to ensure incomplete conversion after 1 h. Products were later confirmed in scaled-up reactions using PfTrpB^0B2.
Substrate Selectivity. The relative rate of NCAA production was measured using 20 mM L-serine and 20 mM indole analog (FIG. 4A) in 200 mM potassium phosphate (pH 8.0) with 5% (vol/vol) DMSO. Reactions were incubated at 75° C. for 1 h, quenched, and the relative rate of production formation was measured by comparing the ratio of the product peaks measured via ultra HPLC-MS (UHPLC-MS) Agilent 1290 with 6140 MS detector at 280 nm and then normalizing for the enzyme concentration.

PfTrpA [4] = format: biochemical, Pyrococcus furiosus
PfTrpA [5] = target: T1, PfTrpA (Pyrococcus furiosus, UniProt Q8U094); format: biochemical; settings: percent of its own activity
T1 construct: made in house; host or cells: E. coli BL21 E. cloni EXPRESS
T1 sequence (Q8U094 whole entry, looked up): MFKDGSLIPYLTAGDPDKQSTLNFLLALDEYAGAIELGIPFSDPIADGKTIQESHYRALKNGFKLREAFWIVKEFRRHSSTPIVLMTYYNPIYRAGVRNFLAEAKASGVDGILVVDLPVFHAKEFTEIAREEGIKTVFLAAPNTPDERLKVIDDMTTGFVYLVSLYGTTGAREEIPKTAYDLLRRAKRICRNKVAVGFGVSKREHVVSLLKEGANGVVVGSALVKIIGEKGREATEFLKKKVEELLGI

[6] = Total turnovers of β-MeTrp formation from L-threonine and indole; format: biochemical; settings: for Turnovers: 1 μM purified enzyme, 20 mM each L-threonine and indole, 24 h at 75° C.; for turnovers (TTN) of β-MeTrp production: purified enzyme, 24 hours
Protocol: Total Turnover Number (TTN) determination. Measurements were made using HPLC and LC-MS instruments. The amount of Trp formed was measured at 280 nm using a standard curve with trichlorobenzene as internal standard. […] This same technique was used to determine the TTN of the PfTrpB^2B9 reaction with different nucleophiles. […] […] Before addition of enzyme, all reagents were transferred into a Coy anaerobic chamber with <1 ppm O2 to rapidly exchange the atmosphere in the headspace of the vials to 95/5% N2/H2, which limits competing non-catalytic oxidation of indoles. Enzyme was added in the anaerobic environment with varied catalyst loading to ensure a robust product signal in subsequent analysis. Reaction vessels were capped before being removed from the anaerobic chamber and incubated in a 75° C. water bath for 24 hours. Reactions were quenched the next day by addition of 1 volume (150 μL) of 100% ACN, mixing, and allowing to rest at room temperature for 10 min. Quenched solutions were then diluted 5-fold with 40% ACN in water and analyzed via LC-MS.
To identify the best parent enzyme for optimization, we first measured production of β-MeTrp using purified enzymes from each generation in the evolution if PfTrpB^0B2.

[7] = Rescreen of library hits for β-MeTrp formation (heat-treated lysate, HPLC); format: biochemical; settings: random mutagenesis library, parent PfTrpB^4D11, 60 min reaction at 75° C.
Protocol: High-throughput screening. For high-throughput expression, BL21 E. cloni Express cells carrying PfTrpB^4D11 and variant plasmids were grown in 96-well deep well plates in 300 μL TBamp at 37° C. and 80% humidity with shaking at 250 rpm overnight. TBamp expression cultures (630 μL) were inoculated with 20 μL of the overnight cultures and continued to grow at 37° C. and 80% humidity with shaking at 250 rpm for 3 h. Expression was induced with the addition of ITPG to a final concentration of 1 mM to pre-chilled (20 min on ice-water bath) cultures. The expression continued for another 20 h at 20° C. with shaking at 250 rpm. Cells were then centrifuged at 4000 g for 10 min and frozen at −20° C. over night. […] The reactions were then arrested by incubation in an ice-water bath, and the amount of β-MeTrp formed was recorded at 290 nm with a plate reader (Tecan Infinite M200).
Cultures of each hit containing missense mutations were grown in triplicate on 5 mL scale and expression and lysis proceeded in the same manner as described in the Cloning, Expression and Purification section above. Reactions using 10 μM protein as heat-treated lysate (determined by Bradford assay) and 20 mM each substrate were run for 1 h at 75° C. and quenched by dilution to 50% ACN.

PfTrpA [8] = target: T2, PfTrpA (Pyrococcus furiosus, UniProt Q8U094); format: biochemical; settings: Table 1, values for PfTrpB reported here
T2 construct: made in house; host or cells: E. coli BL21 E. cloni EXPRESS
T2 sequence (Q8U094 1-248): T1 sequence (Q8U094 whole entry, looked up)
T2 sequence (Q8U093 1-388 partner): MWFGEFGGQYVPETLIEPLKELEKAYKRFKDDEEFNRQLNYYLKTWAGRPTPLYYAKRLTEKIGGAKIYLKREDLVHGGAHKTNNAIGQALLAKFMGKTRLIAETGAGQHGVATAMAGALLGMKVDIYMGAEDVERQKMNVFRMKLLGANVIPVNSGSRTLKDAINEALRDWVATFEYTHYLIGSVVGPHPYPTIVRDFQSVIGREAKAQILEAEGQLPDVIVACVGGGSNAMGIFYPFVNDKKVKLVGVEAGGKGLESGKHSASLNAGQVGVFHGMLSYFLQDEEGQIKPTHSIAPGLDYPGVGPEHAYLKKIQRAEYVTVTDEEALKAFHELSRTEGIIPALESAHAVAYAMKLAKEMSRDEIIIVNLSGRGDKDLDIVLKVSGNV

[9] = Table 1, published values; cited from earlier work

Molecule | T50 [1] [°C] | kcat change with TrpA (PfTrpA [4]) | Turnovers [6] | turnovers (TTN) of β-MeTrp production [6] | also measured
B1 | 87 | 0.04 | 180 | – | kcat higher than PfTrpS [2]: threefold; activity relative to PfTrpB on the substrate panel ([3]; all nucleophiles tested): substantial increase in activity; rate relative to PfTrpS ([3]; indazole (5)): three; rate relative to PfTrpS ([3]; indoline (6)): approximately six; activity when PfTrpA was added (PfTrpA [5]): 4%
B2 | 95 | 0.34 | 420 | – | enhancement of β-MeTrp activity relative to wild-type PfTrpB [6]: approximately 6 fold
B3 | 84 | 0.3 | 660 | ~420 | Fold Improvement (increase in β-MeTrp formation relative to parent) [7]: 1.0 (parent)
B4 | 95 | 3.2 | 66 | 66 | Thermal stability indicators: T50 ([1]; Table 1): 94.7 ± 1.2; kcat change with TrpA (PfTrpA [8]): 3.2
B5 | – | – | – | – | kcat change with TrpA [9]: 2.4
